We go through three molecules from PMC12127886, “Mapping Hsp104 interactions using cross‐linking mass spectrometry” (FEBS Open Bio, 2025).

For data set [1], the target named is Calcarisporiella thermophila CtHsp104ΔN (153–883 aa) (Calcarisporiella thermophila). The data set is described as follows: SEC; purified Hsp104wt and Hsp104mt on a superdex-200 10/300GL column; molecular weights in Table S2. In general terms: In gel filtration, larger molecules generally elute earlier.
The target of data set [2] is CtHsp104ΔN2R encoding the R328M/R757M mutations (Calcarisporiella thermophila). Described as above.
Data set [3] concerns the molecule itself. The experiment in a line: SEC; Hsp104fl and PCSK9 co-expressed in E. coli, complex purified by Ni-NTA, TEV cleavage and SEC; molecular weights in Table S2.

For “Calcarisporiella thermophila CtHsp104ΔN (153–883 aa) (domain or fragment)”, the stoichiometry N (commonly the number of molecules, sites or subunits per partner or assembly) in data set [1] was 6. “CtHsp104ΔN2R encoding the R328M/R757M mutations (domain or fragment)”: the stoichiometry N in data set [2] was 6.

B1: Thermochaetoides thermophila TtHsp104 full length (natural protein, UniProt A0A2Z6G185 1-926, looked up)
chain: MNSKMEFTDRAKKALEDAMALAEQYQHLQLQPVHLAVALLDPTPDPSKDQSAAPGTTSTLFRQVVERAHGDAQAFDRALKKKLVRLPSQDPPPDQVSMSAGCSSVLRKANELQKVQKDSYIAVDHLIAALAEDHTIQEALKEANIPKPKLVQDAIQAIRGNKRVDSRNADTEQENENLSKFCIDMTAMAREGKIDPVIGREEEIRRVIRILSRRTKNNPVLIGEPGVGKTTIVEGLAQRIVNADVPDNLAACKLLSLDVGALVAGSKYRGEFEERMKGVLKEIQESKETIILFVDEIHLLMGAGSSGEGGMDAANLLKPMLARGQLHCIGATTLAEYRKYIEKDAAFERRFQQVLVKEPSITETISILRGLKEKYEVHHGVNIADAAIVAAANLAARYLTSRRLPDSAVDLIDEAAAAVRVARESQPEIIDSLERRLRQLKIEIHALSREKDEASKARLAQAKQDAQNVEEELRPLREKYERERQRGKAIQEAKMKLEALRVKAEDASRMGDHSRAADLQYYAIPEQEAIIKRLEAEKAAADAALNANGADVGGSMITDVVGPDQINEIVARWTGIPVTRLKTSEKEKLLHMEQALSKIVVGQKEAVQSVSNAIRLQRSGLSNPNQPPSFLFCGPSGTGKTLLTKALAEFLFDDPKSMIRFDMSEYQERHSLSRMIGAPPGYVGHDAGGQLTEALRRRPFSILLFDEVEKAAKEVLTVLLQLMDDGRITDGQGRVVDAKNCIVVMTSNLGAEYLSRANNGKDGKIDPTTRELVMNTLRNYFLPEFLNRISSIVIFNRLTRREIRKIVDLRIAEIQKRLTDNDRNVTIKVSDEAKDKLGAQGYSPVYGARPLQRLLEKEVLNRLAILILRGQIREGEVACVELVDGKVQVLPNHPDSEPEDVDVDMESDDAVDEVAPDSMDEDIYND
notes: Hsp104 of Thermochaetoides thermophila, full length; Hexamer in the complex with PCSK9 by SEC; also called Hsp104fl; source: E. coli BL21, co-expressed with PCSK9, complex purified (Ni-NTA, TEV cleavage, SEC)
As for B1, the “stoichiometry N” value in data set [3] was 6.
